The sequences below were run on MS2 coat protein (assay: apparent KD of MS2 coat protein; higher = weaker reporter binding). Settings: Eterna round: R107; input ligand: theophylline 20 uM.
Outline: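 For every design, apparent KD is the median of normalised binding-curve fits from its clusters. The RNA switches were transcribed on-chip from Illumina sequencing clusters and titrated with SNAP-549-labelled MS2 coat protein (twofold steps, 0.7 or 1.5 nM to 3 µM; 0.8–1.5 h to 10–20 min per step). Titrations used 100 mM Tris-HCl pH 7.5, 80 mM KCl, 4 mM MgCl2, without or with constant ligand.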

Going from “ACAUGAGCAUCAGCCAUGUGUAUGACAUGACGAGGACCGGUACGGCCGCCACUCGACAUGAGGAUCACCCAUGUUGAGGAUCACA [Exclusion - Tryptophan A #1]” to “ACAUGAGGAUCACCCAUGUAAUGGCACGAUACCAGCUGAUCCCGUGGCCCUUGGCAGCGUCCGGUGUGGUCCGCCGGGUUGGACG [XXXMULLIN]”, the “apparent KD of MS2 coat protein” value rises from 11.2 nM to 38.7 nM (3.5-fold).

Going from “UUAAUUAUAUAUUAUAUAAUAUAUACAGAAGGAGCGUGAUAAAACACAGGUAGGUCGCUGAAGGGAACAUGAGGAUCACCCAUGU [AstrosSSArgA#1]” to “CACAUGAGGAUCACCCAUGUCUGAACUGAAGGAGCGCUAAACAAGGCAGGUAGGUCGCGGAAUCGUGUGUGCAUAUGCACACGCG [9.V]”, the “apparent KD of MS2 coat protein” value falls from 38.5 nM to 17.9 nM (2.2-fold).

Going from “CGAUAUAUAGCGGCCGCCACUUACUCAUGAGGUAACAACAUGAGGAUCACCCAUGUUUGAGGAUCAAGGACCGGGCUAUGUAUCG [AstrosSSTryB#14]” to “UUUUACGGCGAUCUGGGUUUACCAGAUCGGCGAGGACCGGUACGGCCGCCACUCGUGUUUCUUUAACAUGAGGAUCACCCAUGUA [SSTA #1]”, the “apparent KD of MS2 coat protein” value rises from 32 nM to 77.3 nM (2.4-fold).

“UGUAUGUGAUCUGAUACCAGCGUUGAUAACCUGAGGAUCACCCUGGUAAGGCGAAAGCCGCGCCCUUGGCAGCAGAUCGCAUACU” and “CCUGCUACGGGAAACCGUAGCAGGAAUGAUACCAGUAGGAAAGACUACCCUUGGCAGCAUGGGUAACAUGAGGAUCACCCAUGUU [SSThA NP+V+V2 #6 Same Structure]” are within 1.5-fold of each other in “apparent KD of MS2 coat protein” value: 83.9 nM for the first, 124 nM for the second.

Going from “AUACAUGAGGAUCACCCAUGUCCUCGUGAUCGAGGACCGGUACGGCCGCCACUCGGUCCUCGCGAGGUGGAGUCAAAGACUCCAA [Omei Trp A SS A v5]” to “GUGACUUAAAGGCGCCAUUUGUGAUAGGAAGGAGCGGCGAAAUAGCCAGGUAGGUCGCCUAUACAUGAGGAUCACCCAUGUCACC [XARG-A 26]”, the “apparent KD of MS2 coat protein” value falls from 166 nM to 84.4 nM (2-fold).

Compared with “AGAUGUAGCGGAAGGAGCGACAUGAGGAUCACCCAUGUCUCCCGUUGUGGGAGUUCCUUAGGUCAGGUAGGUCGCCGUUACGUCA [Omei Arg B SS B v2]”, “ACUCUGUCGGGUGAUACCAGCCUCGGCACAUCUCGCGCCGAACAUGAGGAUCACCCAUGUGGCCCUUGGCAGCACAUGACAAAUC [Rimalearve]” is 4-fold higher in “apparent KD of MS2 coat protein” value: 153 nM for the first, 618 nM for the second.

Compared with “CCGUCACAUGAGGAUCACCCAUGUGGUGAUACCAGCAGUCGACCCUGCCCUUGGCAGCACAUUAUCAUAAAAGCAAUCAGCAACG [theeternabot_sameState_MS2_Theo_A_41]”, “UGACAUUGCUGCGAUACCAGACAUGAGGAUCACCCAUGUACCAAGGUAAAGAAAUAACGUGUCCCUUGGCAGCGCAGCAAUGUCU [MAT - Exclusion Theophlline B - Mod of Eli - D8]” is 19-fold lower in “apparent KD of MS2 coat protein” value: 269 nM for the first, 13.9 nM for the second.

Compared with “ACAUGAGGAUCACCCAUGUUUGAUGUUCCUCGAGGACCGGUACGGCCGCCACUCGAACGAGUGGCGCGCGAGUGCGCACUCGCGC [aSa]”, “GGUUGGUGUAUAUAUAUAUUGAUUACUGAAGGAGCGGGAAAUAACCCAGGUAGGUCGCAGAGAUCCACAUGAGGAUCACCCAUGU [!0.J]” is 2.5-fold higher in “apparent KD of MS2 coat protein” value: 20.1 nM for the first, 50.2 nM for the second.

First: CAUACUUUAGUAUGUUAUGUGGACAGUGAUACCAGAUACGAAAGUAUCCCUUGGCAGCACAACAUGAGGAUCACCCAUGUAAUUU [Theophylline A 5]
Second: GCUAGUGGCAGAAGGAGCGACAUUUUAAGUGGUCGAUACAUGAGGAUCACCCAUGUACUAUGUCAGGUAGGUCGCUGCCACUAGC [EAB NP+V+V2 #3 +-Same Structure]
The “apparent KD of MS2 coat protein” value of the first is 1.6-fold lower: 24.8 nM for the first, 38.8 nM for the second.

For “GACUCUGUCGGAAGGAGCGCAGAGCCGGUCUUCUACAUGAGGAUCACCCAUGUGCUGGUUAUGCAGGUAGGUCGCCGACGCGUGG [Ismatiza]”, the “apparent KD of MS2 coat protein” value was 40.2 nM.

Same assay, conditions: Eterna round: R107; input ligand: theophylline 2 mM

First: UUGGGUUUGUGAAGGAGCGGGUAUGUUUUAUAGUGGAUCCUAACAUGAGGAUCACCCAUGUCCCAGGUAGGUCGCGCGGGUUUGG [12.T]
Second: GGAUUAGAGGCGGCCGCCACUGGAACAUGAGGAUCACCCAUGUAGUGCAUGUAAUUAACCUCGAUCAGGACCGGGCCGAUAGUCA [Exclusion - Tryptophan B / A]
The “apparent KD of MS2 coat protein” value of the first is 2.2-fold higher: 149 nM for the first, 67.2 nM for the second.

Going from “UGGUCCGGCGGAAGGAGCGACAUGAGGAUCACCCAUGUCUCCCGUUAUGGGAGUUCUUUAGGUCAGGUAGGUCGCCGGCGGGUCA [#1 Exclusion - Arginine B Attempt #11 (Inspired by Omei)]” to “ACUACAAAGUAGUAUAUACGAAAGUAUAGACGAGGACCGGUACGGCCGCCACUCGGUACCGGAAACACAUGAGGAUCACCCAUGU [Ex_TrypA - 3H]”, the “apparent KD of MS2 coat protein” value falls from 221 nM to 23 nM (9.6-fold).

Going from “UCGCGAUAGAGAAGGAGCGUCAACACCACUUAACAUGAGGAUCACCCAUGUGUUACUUUAAGACAGGUAGGUCGCUCUAGCGCUU [JR_Nu_ExcArginiB_Sub027]” to “CGUAUUGGAAACAGUACGAGUGAUCCGGUCCGAGGACCGGUACGGCCGCCACUCGAAAUAAAUAAACAUGAGGAUCACCCAUGUA [Ex Tryptophan A 9]”, the “apparent KD of MS2 coat protein” value rises from 14.2 nM to 21.9 nM (1.5-fold).

Going from “GGGUGGUAGGCGGCCGCCACUGAUUUUCAUUCAUAGAUGACAUGAGGAUCACCCAUGUUUAUGUGCAGGACCGGGCCUGCUGUGG [aaaU]” to “GGUUACUCUACGGCCGCCACUGUCAUGUAAAGAUACCUGUACAUGACAUGAGGAUCACCCAUGUGCAGGACCGGGUAGUGUAACC [Tryptophan B 18]”, the “apparent KD of MS2 coat protein” value rises from 115 nM to 201 nM (1.7-fold).

Compared with “GGAGGGACCAGAAGGAGCGACAUGAGGAUCACCCAUGUCUCCCGUUAUGGGAGUUCUUUAGGUCAGGUAGGUCGCUGGUCCCUCC [#1 Exclusion - Arginine B Attempt #6 (Inspired by Omei)]”, “UGUAUGUGAUCUGAUACCAGCUAAUAAAGCUUGAGGAUCACCCAAGUGGAGCGGAAACGCAGCCCUUGGCAGCAGAUCGCAUACU [Denovo 8 #StaticStem #AlternativeMS2]” is 14-fold lower in “apparent KD of MS2 coat protein” value: 138 nM for the first, 9.93 nM for the second.

First: AAUUUAUGGUUCUUGAUGUAGUAUCUAUUUCGAGGACCGGUACGGCCGCCACUCGUAAAUUACAUGAGGAUCACCCAUGUUAGCU [JR_ExcTryptoA_Sub011]
Second: AUUCUUUACUGAAGGAGCGUCAUUCUUACAUGAGGAUCACCCAUGUUUAUUCUUUAUUAUUGACAGGUAGGUCGCAGAUUUUUUA [JR_SSArginiB_Sub018]
The “apparent KD of MS2 coat protein” value of the first is 2-fold higher: 28.8 nM for the first, 14.3 nM for the second.

First: AACACAUGAGGAUCACCCAUGUUCUCGUGUCGAGGACCGGUACGGCCGCCACUCGGUUCUCGCGAGGAUGGUCAAAGACUAUCCA [Omei Trp A SS B v7]
Second: AUAAAUAAUAAAUAAAAUAAAAUGGGUGAACGAGGACCGGUACGGCCGCCACUCGGACAUGAGGAUCACCCAUGUCCAUGUGAAA [#21 Exclusion Tryptophan A]
The “apparent KD of MS2 coat protein” value of the first is 2.2-fold higher: 50.4 nM for the first, 22.7 nM for the second.

Going from “CUAUAUAGAAAACUAUAUAGAGUGGGUGAACGAGGACCGGUACGGCCGCCACUCGGACAUGAGGAUCACCCAUGUCCAUGUGAAA [AstrosExyTryA#25]” to “AAAGGUCGCAAUAAAUCUCCUACAUGUGAAGGAGCGCCCGAAAGGGCAGGUAGGUCGCACAUGAGGAUCACCCAUGUGAGCGACC [MAT - Exclusion Arginine A - Mod of Eli - D2]”, the “apparent KD of MS2 coat protein” value falls from 25 nM to 13 nM (1.9-fold).

Going from “ACAUGAGCAUCAGCCAUGUGUAUGACAUGACGAGGACCGGUACGGCCGCCACUCGACAUGAGGAUCACCCAUGUUGAGGAUCACA [Exclusion - Tryptophan A #1]” to “UUAAUUAUAUAUUAUAUAAUAUAUACAGAAGGAGCGUGAUAAAACACAGGUAGGUCGCUGAAGGGAACAUGAGGAUCACCCAUGU [AstrosSSArgA#1]”, the “apparent KD of MS2 coat protein” value rises from 11.3 nM to 48.6 nM (4.3-fold).

For “CACAUGAGGAUCACCCAUGUCUGAACUGAAGGAGCGCUAAACAAGGCAGGUAGGUCGCGGAAUCGUGUGUGCAUAUGCACACGCG [9.V]”, the “apparent KD of MS2 coat protein” value was 31.3 nM.
